Patent EP3515493A1

Molecular target: HLA-DR, human (human)
Test: cell-based or functional assay

Question: Which lysis rate (LDH cytotoxicity assay, Raji target cells) does the source give for Lym-2 CAR here?
Answer: Its lysis rate (LDH cytotoxicity assay, Raji target cells) is 22%.

Question: Lym-1 CAR was tested. Which lysis rate (LDH cytotoxicity assay, Raji target cells) did it give?
Answer: The lysis rate (LDH cytotoxicity assay, Raji target cells) was 22%.
